Here are results for two molecules from patent EP3222635A1.

Assay [1] has as its target Soluble human P-selectin (human) (UniProt P16109). Put plainly: SPR (SensiQ), antibody captured on protein G, soluble human P-selectin 100nM-1.56nM as analyte.
Assay [2] has the same target. Put plainly: SPR (SensiQ), reference G1.

Sequence of UniProt P16109 (P16109 42-771 limits assumed): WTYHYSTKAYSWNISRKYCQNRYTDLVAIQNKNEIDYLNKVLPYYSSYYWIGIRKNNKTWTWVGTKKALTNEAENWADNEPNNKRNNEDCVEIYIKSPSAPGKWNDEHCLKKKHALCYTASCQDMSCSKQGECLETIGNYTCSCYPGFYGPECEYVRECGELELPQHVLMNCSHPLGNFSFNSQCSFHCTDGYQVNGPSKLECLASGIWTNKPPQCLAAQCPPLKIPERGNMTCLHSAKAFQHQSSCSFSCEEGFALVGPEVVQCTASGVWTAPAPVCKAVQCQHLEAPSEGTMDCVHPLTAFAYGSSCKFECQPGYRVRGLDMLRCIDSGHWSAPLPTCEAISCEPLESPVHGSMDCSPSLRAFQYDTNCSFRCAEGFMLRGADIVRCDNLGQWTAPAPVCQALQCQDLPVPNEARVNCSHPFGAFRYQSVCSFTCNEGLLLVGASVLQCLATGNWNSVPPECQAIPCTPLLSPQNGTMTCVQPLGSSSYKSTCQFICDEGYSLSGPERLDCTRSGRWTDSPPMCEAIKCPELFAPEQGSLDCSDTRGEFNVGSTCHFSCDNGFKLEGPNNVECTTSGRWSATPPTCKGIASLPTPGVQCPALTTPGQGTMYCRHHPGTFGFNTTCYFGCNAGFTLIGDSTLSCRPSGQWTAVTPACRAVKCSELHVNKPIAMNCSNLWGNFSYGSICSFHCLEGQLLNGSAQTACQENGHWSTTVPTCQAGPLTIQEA

In general, Kd refers to the constant that tells how readily two partners part at equilibrium. A high value points to a looser complex. Broadly, the koff is the rate constant with which the complex falls apart. Usually kon stands for the second-order rate constant of association. In assay [1], “G1 mouse monoclonal anti-P-selectin antibody” gave a Kd of 8.94 nM, an off-rate constant (koff) of 0.056 s⁻¹ and a kon of 6.3e+06 M⁻¹ s⁻¹.

B1: hSel001 humanized IgG2 anti-P-selectin antibody (antibody, from another filing, V domains shown)
VH: QVQLVQSGAEVKKPGASVKVSCKVSGYTFTSYDINWVRQAPGKGLEWMGWIYPGDGSIKYNEKFKGRVTMTVDKSTDTAYMELSSLRSEDTAVYYCARRGEYGNYEGAMDYWGQGTLVTVSS
VL: DIQMTQSPSSLSASVGDRVTITCKASQSVDYDGHSYMNWYQQKPGKAPKLLIYAASNLESGVPSRFSGSGSGTDFTLTISSLQPEDFATYYCQQSDENPLTFGGGTKVEIKR
B1: in assay [1], the Kd worked out at 5.89 nM, the off-rate constant (koff) is 0.0131 s⁻¹ and the association rate constant (kon) stood at 2.22e+06 M⁻¹ s⁻¹. In assay [2], this molecule had a Ka (association constant) higher than G1 of 64.7% and an improvement in the binding affinity compared to G1 of 34%.
